Assay results as given in PMC11913275, “Targeting prostate cancer by new bispecific monocyte engager directed to prostate-specific membrane antigen” (PLOS One, 2025).

Target: T1, Prostate-specific membrane antigen (Homo sapiens, UniProt Q04609)
T1 construct: also called PSMA; glutamate carboxypeptidase II; source: on PSMA-positive PC3-PIP cells
Assay: flow cytometry on cells; PSMA-positive PC3-PIP cells (PC3 as negative control) mixed with 5-fold dilution series of the construct, 20 μL, 15 min at 4°C; 5D3-CP33 detected by anti-Strep tag antibody and Alexa Fluor 647 secondary, ch5D3 by anti-human Alexa Fluor 647 secondary; KD by non-linear regression
Details: one partner purified

T1 sequence (Q04609 whole entry): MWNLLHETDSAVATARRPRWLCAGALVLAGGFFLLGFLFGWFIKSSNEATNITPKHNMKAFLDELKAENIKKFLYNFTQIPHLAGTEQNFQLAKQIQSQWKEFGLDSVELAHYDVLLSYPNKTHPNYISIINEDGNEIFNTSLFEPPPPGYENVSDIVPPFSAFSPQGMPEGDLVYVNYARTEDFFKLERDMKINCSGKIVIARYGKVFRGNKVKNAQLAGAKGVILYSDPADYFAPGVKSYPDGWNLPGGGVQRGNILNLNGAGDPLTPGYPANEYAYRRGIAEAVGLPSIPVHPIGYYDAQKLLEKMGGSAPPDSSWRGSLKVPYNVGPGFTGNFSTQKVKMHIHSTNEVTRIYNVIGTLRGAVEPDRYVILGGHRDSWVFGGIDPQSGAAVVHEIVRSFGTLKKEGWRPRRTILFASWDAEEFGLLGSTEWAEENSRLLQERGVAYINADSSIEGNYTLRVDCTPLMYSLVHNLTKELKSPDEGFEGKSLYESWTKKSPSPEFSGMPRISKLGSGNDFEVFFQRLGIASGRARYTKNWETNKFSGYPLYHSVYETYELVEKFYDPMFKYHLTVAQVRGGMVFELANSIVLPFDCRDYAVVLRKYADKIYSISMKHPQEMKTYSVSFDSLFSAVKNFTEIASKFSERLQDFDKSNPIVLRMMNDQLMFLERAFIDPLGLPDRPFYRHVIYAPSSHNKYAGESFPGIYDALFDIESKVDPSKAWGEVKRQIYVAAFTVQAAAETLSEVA

B1: 5D3-CP33 bispecific monocyte engager (5D3-scFv HL fused to the N-terminus of CP33) (bispecific antibody, V domains shown)
VH: EVQLQQSGPELVKPGASVKISCKTSGYAFNTSWMNWVKQRPGQGLEWIGRIYPGDGDTNYNGKFKGKATLTADKSSSTAHMHLSSLTSVDSAVYFCARGEWYLYYFDYWGQGTTLTVSS
VL: DIQMTQTTSSLSASLGDRVTISCSASQGINNFLTWYQQKPDGTLKLLIYYTSSLHSGVPSRFSGSGSGTDYSLTIRNLEPEDIATYYCQQYSNLPFTFGGGTKVEIK
notes: VH of the anti-PSMA antibody 5D3 (scFv HL, heavy then light); linker of the 5D3 scFv HL; VL of the anti-PSMA antibody 5D3; The construct has the BiP secretion signal at its N-terminus (vector pMT/BiP/V5-HisA); About 35 kDa; also called 5D3-CP33 fusion; 5D3-scFv-CP33; not shown: SA-strep II, C-terminal, kept
  Kd: 3.4 nM
